Measurements as given in PMC4512625, “Critical role of the SPAK protein kinase CCT domain in controlling blood pressure” (Human Molecular Genetics, 2015).

Biological target: T1, Lumio-Green-labelled RFXV-motif-possessing peptide derived from WNK4 (EP4543) (not fully specified; Lumio Green fluorophore conjugated to the N-terminal linker CCPGCCGGGG)
T1 construct: N-terminal linker required for conjugating to the Lumio Green fluorophore; stretch of WNK4 with the RFQV motif; also called WNK peptide; RFXV peptide; source: synthetic peptide (GL Biochem)
T1 peptide: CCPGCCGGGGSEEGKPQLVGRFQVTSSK
Assay: fluorescence polarisation; SPAK protein titrated against 10 nM Lumio-Green-labelled peptide; 25°C; 50 mM Tris-HCl pH 7.5, 150 mM NaCl, 2 mM DTT; one-site-specific binding model
Conditions: both partners purified

fold reduction of binding against wild-type SPAK 452-547: ~100 fold
B1: human SPAK 452-547 with L491A (domain or fragment)
chain: not shown
notes: SPAK, human, residues 452-547 (end), the CCT domain, L491A; pGEX-6P-1 construct; GST-SPAK proteins were eluted with 20 mM glutathione and no cleavage of GST is described, so GST was probably still on the protein; also called SPAK CCT domain L491A (equivalent to L502 in mouse); source: E. coli BL21, purified (glutathione-Sepharose)
